Assay results from PMC5433843, “Protein Phosphatase 1 inactivates Mps1 to ensure efficient Spindle Assembly Checkpoint silencing” (eLife, 2017).

Biological target: T1, MBP-PP1-87B (Drosophila, UniProt P12982 1-302)
T1 construct: Drosophila PP1-87B (orthologue of PP1-gamma); also called MBP-87B; Protein Phosphatase 1; source: E. coli BL21-star, purified with amylose magnetic beads
Assay: pull-down; purified 6xHis-N-Mps1 fragments incubated with MBP or MBP-PP1-87B bound to amylose magnetic beads; column buffer 250 mM NaCl, 20 mM Tris-HCl pH 7.4, 1 mM EDTA, 1 mM DTT; 60 min, room temperature; western blot
Conditions: both partners purified

T1 sequence (P12982 whole entry): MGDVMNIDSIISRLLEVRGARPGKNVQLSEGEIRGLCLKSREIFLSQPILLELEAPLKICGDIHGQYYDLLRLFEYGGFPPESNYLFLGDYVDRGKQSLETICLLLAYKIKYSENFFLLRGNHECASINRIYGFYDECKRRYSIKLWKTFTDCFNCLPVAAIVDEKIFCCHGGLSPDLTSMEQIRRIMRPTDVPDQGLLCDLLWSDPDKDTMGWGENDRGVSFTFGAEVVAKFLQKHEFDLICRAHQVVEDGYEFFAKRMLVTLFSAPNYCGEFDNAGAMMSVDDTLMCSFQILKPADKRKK

B1: 6xHis-N-Mps1^WT (domain or fragment, Drosophila, UniProt Q9VEH1 104-330, looked up)
chain: PSQELTNSNSNITTRRTPSAAPLKQSDSNLSFLGRFNDMGINCSSQGSPVANSEKQVAKKTAPTLQAAPSATERRPLQETETPLRNELPSTSKTKPDADFITPQVRTIGSTLAGKSRSAVSNDFRAQKVLFQTPMTVSRAAPVASDSISFSLCDTITESPDIPEPPKKAEPPKSQHPSKKSLDHVFRESDKDNVPDKVDNVEPKELVSIPAVAVPPEQPSHKTSNIL
notes: Drosophila Mps1, N-terminus 104-330 amino acids, cloned into KpnI/XhoI sites of pET30a(+); pET30a(+) may add further vector-coded residues (S-tag) besides the His tag; also called Mps1 N-terminus region (104-330 amino acids); source: E. coli BL21-star, purified with Novex Dynabeads, eluted with imidazole
B1: binds.
